Values of other authors as cited in publication PMC11402941.

What was measured:
[1] = molecular target: PSGL-1 (Homo sapiens) (UniProt Q14242)
[2] = molecular target: VSIG3 (Homo sapiens) (UniProt Q5DX21)
Sequence of UniProt Q5DX21 (Q5DX21 23-241): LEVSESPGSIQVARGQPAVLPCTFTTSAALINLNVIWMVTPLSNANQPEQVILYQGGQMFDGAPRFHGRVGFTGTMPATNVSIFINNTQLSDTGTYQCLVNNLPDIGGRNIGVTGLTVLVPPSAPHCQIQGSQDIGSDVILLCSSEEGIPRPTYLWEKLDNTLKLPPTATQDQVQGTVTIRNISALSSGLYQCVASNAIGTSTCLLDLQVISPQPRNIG

Sequence of UniProt Q14242 (Q14242 42-320): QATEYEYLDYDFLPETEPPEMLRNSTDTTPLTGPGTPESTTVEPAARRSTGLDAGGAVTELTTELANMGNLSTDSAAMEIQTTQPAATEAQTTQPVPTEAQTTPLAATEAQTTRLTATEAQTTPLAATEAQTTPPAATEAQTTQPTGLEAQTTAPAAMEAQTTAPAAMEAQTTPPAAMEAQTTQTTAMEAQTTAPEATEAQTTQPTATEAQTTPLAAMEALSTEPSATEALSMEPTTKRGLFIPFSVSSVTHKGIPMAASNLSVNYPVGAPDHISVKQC

Kd [1]: 0.004 µM
Kd [2]: 0.08 µM
Substance: VISTA (from UniProt Q9H7M9)
